In the supplement of paper PMC9170038:

Test system: MS2 coat protein
Test: apparent KD of MS2 coat protein; designed switch direction (-1 OFF switch, 1 ON switch): 1; higher = weaker reporter binding
Procedure, shortened: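 The reported apparent KD is a per-design median over clusters, from curve fits of normalised cluster fluorescence. Protein titrations used SNAP-549-labelled MS2 coat protein, doubled from 0.7 or 1.5 nM to 3 µM, in Tris-HCl pH 7.5 buffer with KCl, MgCl2, BSA, DTT, tRNA and Tween-20, with no input, 200 uM small-molecule ligand, or an oligonucleotide input. The RNA switches were transcribed on Illumina chips by stalled E. coli RNA polymerase.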

[1] = input ligand: microRNA oligo, concentration not stated
[2] = Eterna round: R95, input ligand: FMN 200 uM
[3] = Eterna round: R95, input ligand: microRNA oligo, concentration not stated
[4] = Eterna round: R95, input ligand: none

## ACAUGAGAGAUAGGAUAUCUUGUACCUACAUGUGACAUGAGGAUCACCCAUGUGGUAAGUAUGACAGAGAAGGAUCAGAUAUGU [Equivalance 70 - Jieux - Same State NG 2] (Eterna round: R96, puzzle: Same State NG 2)
Input ligand: FMN 200 uM
  apparent KD of MS2 coat protein: 20.5 nM
[1]
  apparent KD of MS2 coat protein: 62.8 nM
Input ligand: none
  apparent KD of MS2 coat protein: 82.4 nM

## AGGCUCAGAGCAGGAUAUAUGCGAUCACAUGAGGAUCACCCAUGUCUCGAGCUUCGGCUCGAGGCAUAGAAGGGCUCUGAGCCA [SSNG2/4-B1] (Eterna round: R96, puzzle: Same State NG 2)
Input ligand: FMN 200 uM
  apparent KD of MS2 coat protein: 18.9 nM
[1]
  apparent KD of MS2 coat protein: 28.6 nM
Input ligand: none
  apparent KD of MS2 coat protein: 51.8 nM

## AGGAAGGAGACUGAGGAUAUCGUUGAGAGGACAUGAGGAUCACCCAUGUGUAUAGGAUUGGAGAACGAGAAGGCAGAGGAGUGGA [JR_SS2_Sub046] (puzzle: Same State 2)
[2]
  apparent KD of MS2 coat protein: 50 nM
[3]
  apparent KD of MS2 coat protein: 48.5 nM
[4]
  apparent KD of MS2 coat protein: 72.4 nM

## GUGCAACCGUGUGAGGAUAUCGGUGGUAAAACAUGAGGAUCACCCAUGUCCGAAGCUCGGAUCUCCGAGAAGGCGCACAGUUGCA [Same State 2 - Mod of Erisin v.2] (puzzle: Same State 2)
[2]
  apparent KD of MS2 coat protein: 27.8 nM
[3]
  apparent KD of MS2 coat protein: 290 nM
[4]
  apparent KD of MS2 coat protein: 470 nM

## AGUAGUUUAACAUGAGGAUCACCCAUGUAUGUAUAUGUAACCUAGGAUAUGGAGGUUUUAUUUAACCAGAAGGAGGAUUGUUUA [JR_SSNG3_Sub043] (Eterna round: R96, puzzle: Same State NG 3)
Input ligand: FMN 200 uM
  apparent KD of MS2 coat protein: 18.3 nM
[1]
  apparent KD of MS2 coat protein: 15.8 nM
Input ligand: none
  apparent KD of MS2 coat protein: 20.7 nM

## GUAGCAUACCGAGGAUAUUCAUUACAUGAGGAUCACCCAUGUUUUAUAGGCCGAUUACGGCCUUGGGAGAAGGCGGAAUGCUAC [Xeonanis - 20 Mod27] (Eterna round: R96, puzzle: Same State NG 2)
[1]
  apparent KD of MS2 coat protein: 9.7 nM

## AAUUAAGAUUGAGGAUAUCACGUCGUUUAGACGUGAGAAGGCGAUCAUAACAUGAGGAUCACCCAUGUAUUACAUGAAUUAAUU [SSNG1/5-B3] (Eterna round: R96, puzzle: Same State NG 1)
Input ligand: FMN 200 uM
  apparent KD of MS2 coat protein: 17.8 nM
[1]
  apparent KD of MS2 coat protein: 20 nM
Input ligand: none
  apparent KD of MS2 coat protein: 34 nM

## UGCCUGAGUCGAGGAUAUUAUGGAUCCUUUAAUACAUGAGGAUCACCCAUGUAAUUAAUUAUACAUGAGAAGGCGACUCAGGCU [SSNG2/11-A3] (Eterna round: R96, puzzle: Same State NG 2)
[1]
  apparent KD of MS2 coat protein: 58.9 nM

## UGACACACGGCAGGAUAUCGUUAGCAAAGCUAACGAGAAGGGCCUCAUGUCGUGGAAACGUGACAUGAGGAUCACCCAUGUCGC [Omei SS(NG)1 Cv9] (Eterna round: R96, puzzle: Same State NG 1)
Input ligand: FMN 200 uM
  apparent KD of MS2 coat protein: 272 nM
[1]
  apparent KD of MS2 coat protein: 27.3 nM
Input ligand: none
  apparent KD of MS2 coat protein: 58.5 nM

## UUUAUAUUCAGAGGAUAUUAAAGUAGUAUAAUAUAAGAAGGCUGUUUGUUUUGUAAAUUUAUUCUACAUGAGGAUCACCCAUGU [JR_SSNG1_Sub086] (Eterna round: R96, puzzle: Same State NG 1)
[1]
  apparent KD of MS2 coat protein: 14.5 nM

## UGGUAACAUGAGGAUCACCCAUGUCAAAUGAAUCGAGGAUAUGGGAAAGGAGAAGAGAAACUAGAAGGCGAAGUUG [Altered State 1-12 - Jieux - Same State 1] (puzzle: Same State 1)
[2]
  apparent KD of MS2 coat protein: 202 nM
[3]
  apparent KD of MS2 coat protein: 191 nM
[4]
  apparent KD of MS2 coat protein: 148 nM

## GAGUGAUGGGUUAGUAACUGCUGGGAAGGACAUGAGGAUCACCCAUGUGAGUAACGAGCUUGUGCUCGUCUUAUAAG [JR_SHM208A_Sub022] (puzzle: Sensor for hsa-mir-208a)
[2]
  apparent KD of MS2 coat protein: 388 nM
[3]
  apparent KD of MS2 coat protein: 192 nM
[4]
  apparent KD of MS2 coat protein: 425 nM

## CCAUAGUACAAUUUAGAUCUACAUGAGGAUCACCCAUGUACUGAGGAUAUCAGCUCGAUUAGAGCUGAGAAGGCAGAAGUACUU [SSNG3/6-A2] (Eterna round: R96, puzzle: Same State NG 3)
Input ligand: FMN 200 uM
  apparent KD of MS2 coat protein: 39.3 nM
[1]
  apparent KD of MS2 coat protein: 64.6 nM
Input ligand: none
  apparent KD of MS2 coat protein: 81.1 nM
